The results in this text go back to the supplement of paper PMC10567573.

The chains are these.
B1: INTS3 (parent)
chain: FSDDEEDLNSKGKKREFRFHPIKE
B2: KRT18 (parent)
chain: RAQYDELARKNREELDKYWSQQIE
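Further: lentivirally expressed fusions sorted by FACS into six bins by GFP to DsRed ratio, PSI derived from sequencing read proportions per bin multiplied by bin number.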

In one data set the parent is B1. Put plainly: protein stability index of a GFP-peptide fusion (GPS, HEK-293T) (PSI 1-6); higher = more stable. The conditions noted are these: c terminus: a fixed tail appended.
For SSDDEEDLNSKGKKREFRFHPIKE, the protein stability index is 2.32.
The same measure, in the same setting: in the case of HSDDEEDLNSKGKKREFRFHPIKE it was 2.72.
For RSDDEEDLNSKGKKREFRFHPIKE, the protein stability index amounted to 2.71.
For YSDDEEDLNSKGKKREFRFHPIKE, the protein stability index amounted to 2.94.
Still for that read-out and setting: in the case of VSDDEEDLNSKGKKREFRFHPIKE it was 3.29; in that of DSDDEEDLNSKGKKREFRFHPIKE, 2.84.
On the same count and under the same terms, for LSDDEEDLNSKGKKREFRFHPIKE the value was 2.69; for ISDDEEDLNSKGKKREFRFHPIKE, 3.2; for CSDDEEDLNSKGKKREFRFHPIKE, 2.73.
Still for that read-out and setting: for ESDDEEDLNSKGKKREFRFHPIKE the value was 3.36; for TSDDEEDLNSKGKKREFRFHPIKE, 3.05; for MSDDEEDLNSKGKKREFRFHPIKE, 2.58.
Take QSDDEEDLNSKGKKREFRFHPIKE: the protein stability index is 3.
The same measure, in the same setting: in the case of KSDDEEDLNSKGKKREFRFHPIKE it was 2.33; in that of WSDDEEDLNSKGKKREFRFHPIKE, 2.84.
The same measure, in the same setting: for NSDDEEDLNSKGKKREFRFHPIKE the value was 3.24; for ASDDEEDLNSKGKKREFRFHPIKE, 2.89.
On the same count and under the same terms, for GSDDEEDLNSKGKKREFRFHPIKE the value was 2.99; for PSDDEEDLNSKGKKREFRFHPIKE, 3.19.
Consider FSGDEEDLNSKGKKREFRFHPIKE, for which the protein stability index came out at 2.85.
For the variant FSHDEEDLNSKGKKREFRFHPIKE, the protein stability index turned out to be 2.69.
Still for that read-out and setting: for FSQDEEDLNSKGKKREFRFHPIKE the value was 2.58; for FSNDEEDLNSKGKKREFRFHPIKE, 2.57; for FSKDEEDLNSKGKKREFRFHPIKE, 2.59.
On the same count and under the same terms, in the case of FSPDEEDLNSKGKKREFRFHPIKE it was 2.29; in that of FSIDEEDLNSKGKKREFRFHPIKE, 2.09; in that of FSLDEEDLNSKGKKREFRFHPIKE, 2.23.
Consider FSADEEDLNSKGKKREFRFHPIKE, for which the protein stability index came out at 2.19.
FSEDEEDLNSKGKKREFRFHPIKE: the protein stability index came to 2.61.
Same read-out and setting: in the case of FSCDEEDLNSKGKKREFRFHPIKE it was 2.42; in that of FSFDEEDLNSKGKKREFRFHPIKE, 2.38.
Still for that read-out and setting: for FSMDEEDLNSKGKKREFRFHPIKE the value was 2.55; for FPDDEEDLNSKGKKREFRFHPIKE, 2.53; for FEDDEEDLNSKGKKREFRFHPIKE, 3.39.
Still for that read-out and setting: for FCDDEEDLNSKGKKREFRFHPIKE the value was 2.8; for FWDDEEDLNSKGKKREFRFHPIKE, 2.33; for FHDDEEDLNSKGKKREFRFHPIKE, 2.3.
As for FGDDEEDLNSKGKKREFRFHPIKE, the protein stability index was found to be 3.22.
On the same count and under the same terms, in the case of FRDDEEDLNSKGKKREFRFHPIKE it was 2.14; in that of FQDDEEDLNSKGKKREFRFHPIKE, 2.5; in that of FLDDEEDLNSKGKKREFRFHPIKE, 2.47.
On to FADDEEDLNSKGKKREFRFHPIKE, for which the protein stability index worked out at 3.14.
For the variant FNDDEEDLNSKGKKREFRFHPIKE, the protein stability index stood at 2.92.
Regarding FFDDEEDLNSKGKKREFRFHPIKE, the protein stability index stood at 2.31.
Still for that read-out and setting: for FKDDEEDLNSKGKKREFRFHPIKE the value was 3.23; for FYDDEEDLNSKGKKREFRFHPIKE, 2.43; for FDDDEEDLNSKGKKREFRFHPIKE, 3.34.
As to FTDDEEDLNSKGKKREFRFHPIKE, the protein stability index amounted to 2.88.
The same measure, in the same setting: for FMDDEEDLNSKGKKREFRFHPIKE the value was 2.6; for FVDDEEDLNSKGKKREFRFHPIKE, 2.2.
The same measure, in the same setting: for FIDDEEDLNSKGKKREFRFHPIKE the value was 2.39.

In another data set the parent is B2. Described as above. As to conditions: c terminus: a fixed tail appended.
Consider RAQYDELARKNREELDKYWSQTIE, for which the protein stability index worked out at 3.99.
The same measure, in the same setting: for RAQYDELARKNREELDKYWSQRIE the value was 3.78.
Turning to RAQYDELARKNREELDKYWSQYIE, the protein stability index was 3.44.
On the same count and under the same terms, in the case of RAQYDELARKNREELDKYWSQVIE it was 3.08; in that of RAQYDELARKNREELDKYWSQSIE, 3.82; in that of RAQYDELARKNREELDKYWSQWIE, 4.
Still for that read-out and setting: in the case of RAQYDELARKNREELDKYWSQQIM it was 2.31; in that of RAQYDELARKNREELDKYWSQQIS, 3.27; in that of RAQYDELARKNREELDKYWSQQIG, 3.77.
Still for that read-out and setting: in the case of RAQYDELARKNREELDKYWSQQIH it was 3.72; in that of RAQYDELARKNREELDKYWSQQIF, 3.16; in that of RAQYDELARKNREELDKYWSQQID, 3.8.
For RAQYDELARKNREELDKYWSQQII, the protein stability index is 3.12.
Same read-out and setting: in the case of RAQYDELARKNREELDKYWSQQIT it was 3.36; in that of RAQYDELARKNREELDKYWSQQIR, 2.3; in that of RAQYDELARKNREELDKYWSQQIK, 3.34.
The same measure, in the same setting: in the case of RAQYDELARKNREELDKYWSQQIN it was 3.13; in that of RAQYDELARKNREELDKYWSQQIQ, 2.94.
Same read-out and setting: in the case of RAQYDELARKNREELDKYWSQQIL it was 2.23.
Take RAQYDELARKNREELDKYWSQQIV: the protein stability index amounted to 3.01.
Turning to RAQYDELARKNREELDKYWSQQIA, the protein stability index was 2.48.
Same read-out and setting: for RAQYDELARKNREELDKYWSQQIC the value was 3.05; for RAQYDELARKNREELDKYWSQQIP, 3.87.
Same read-out and setting: in the case of RAQYDELARKNREELDKYWSQQIW it was 2.5; in that of RAQYDELARKNREELDKYWSQQIY, 2.73.
In the case of RAQYDELARKNREELDKYWSQQFE, the protein stability index was determined as 2.23.
Still for that read-out and setting: for RAQYDELARKNREELDKYWSQQWE the value was 3.97; for RAQYDELARKNREELDKYWSQQCE, 3.45.
For the variant RAQYDELARKNREELDKYWSQQDE, the protein stability index was found to be 5.28.
Same read-out and setting: in the case of RAQYDELARKNREELDKYWSQQPE it was 4.96; in that of RAQYDELARKNREELDKYWSQQAE, 3.97.
The same measure, in the same setting: for RAQYDELARKNREELDKYWSQQGE the value was 4.41; for RAQYDELARKNREELDKYWSQQHE, 2.23.
With RAQYDELARKNREELDKYWSQQME, the protein stability index was 2.28.
The same measure, in the same setting: for RAQYDELARKNREELDKYWSQQEE the value was 5.1; for RAQYDELARKNREELDKYWSQQSE, 4.96.
With RAQYDELARKNREELDKYWSQQTE, the protein stability index was 4.69.
For the variant RAQYDELARKNREELDKYWSQQQE, the protein stability index was determined as 4.43.
On the same count and under the same terms, for RAQYDELARKNREELDKYWSQQLE the value was 2.21; for RAQYDELARKNREELDKYWSQQKE, 5.03; for RAQYDELARKNREELDKYWSQQRE, 4.68.
On the same count and under the same terms, in the case of RAQYDELARKNREELDKYWSQQNE it was 4.39.
Same read-out and setting: for RAQYDELARKNREELDKYWSQQVE the value was 4.14.
